Residue numbers refer to the chain shown, from its start. Each block holds one binder with its values, some of them ahead of it.
Target: yeast histone H2A-H2B dimer (Saccharomyces cerevisiae) (UniProt P04911)
Assay: ITC; ITC200 at 20 °C; 0.5 mM ARB2 or mutant in the injector, 0.2 mM H2A/B or 0.25 mM H3/4 in the sample cell; 25 mM Tris-HCl pH 7.5, 200 mM NaCl; single-site fitting model

B1: ARB2-M1 (residues Gln463, His467 and Asp471 mutated to Ala) (domain or fragment)
chain: LQKAIRAQQQAYLSAEFNFVTLPLVSMDLPDNTVLCTPNISESNTIIIVVHDTSDIWAKRNVISGTIDLSSSVIIDNSLDFIKWGLDRKYGIIDVNIPLTLFEPDNYSGMITSQEVLIYLWDNYIKYFPSVAKIAFIGIGDSYSGIVHLLGHRDTRAVTKTVINFLGDKQLKPLVPLVDETLSEWYFKNSLIFSNNSHQCWKENESRKPRKKFGRVLRCDTDGLNNIIEERFEEATDFILDS
Kd: 20.4 µM | dH: -6.86 kcal/mol | stoichiometry N: 0.77

B5: ARB2 domain of Hda1 (Hda1^457–698) (domain or fragment)
chain: B1 chain with A7Q, A11H, A15D
Kd: 5.46 µM | dH: -12.9 kcal/mol | stoichiometry N: 0.78

More lines, now with the values ahead:

Kd: 17.4 µM | dH: -11.5 kcal/mol | stoichiometry N: 0.8
B2: ARB2-M4 (residues His604, His608 and Arg609 mutated to Ala) (domain or fragment)
chain: B1 chain with A7Q, A11H, A15D, H148A, H152A, R153A

Kd: 27.7 µM | dH: -11.6 kcal/mol | stoichiometry N: 0.74
B3: ARB2-M3 (residues Val481, Ser482, Met483 and Asp484 mutated to Ala) (domain or fragment)
chain: B1 chain with A7Q, A11H, A15D, V25A, S26A, M27A, D28A

Kd: 16.9 µM | dH: -8.9 kcal/mol | stoichiometry N: 0.64
B4: ARB2-M2 (residues Tyr468 and Glu472 mutated to Ala) (domain or fragment)
chain: B1 chain with A7Q, A11H, Y12A, A15D, E16A

Reference: paper PMC5036196
